Source: PMC10397247
Values belong to the binder of their own block, whether it stands above or below them.

What was measured:
4H2198-AA = biological target: T1, 4H2198-AA; test: two-hybrid library CCmax;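 note: natural log of median RNA to DNA barcode read ratio; higher means stronger binding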
T1 chain: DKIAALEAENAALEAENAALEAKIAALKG

4H2907-AA = biological target: T2, 4H2907-AA; test: two-hybrid library CCmax; details: mean of both orientations;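 note: natural log of median RNA to DNA barcode read ratio; higher means stronger binding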
T2 chain: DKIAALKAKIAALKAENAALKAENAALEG

4H3631-AA = biological target: T3, 4H3631-AA; test: two-hybrid library CCmax; details: mean of both orientations;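 note: natural log of median RNA to DNA barcode read ratio; higher means stronger binding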
T3 chain: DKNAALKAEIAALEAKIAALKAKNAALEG

4H384-AA = biological target: T4, 4H384-AA; test: two-hybrid library CCmax; details: mean of both orientations;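 note: natural log of median RNA to DNA barcode read ratio; higher means stronger binding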
T4 chain: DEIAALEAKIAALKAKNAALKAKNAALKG

4H3133-AA = biological target: T5, 4H3133-AA; test: two-hybrid library CCmax; details: mean of both orientations;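 note: natural log of median RNA to DNA barcode read ratio; higher means stronger binding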
T5 chain: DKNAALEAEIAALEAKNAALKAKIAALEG

4H3378-AA = biological target: T6, 4H3378-AA; test: two-hybrid library CCmax;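 note: natural log of median RNA to DNA barcode read ratio; higher means stronger binding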
T6 chain: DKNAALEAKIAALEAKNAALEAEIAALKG

4H3697-AA = biological target: T7, 4H3697-AA; test: two-hybrid library CCmax; details: mean of both orientations
T7 chain: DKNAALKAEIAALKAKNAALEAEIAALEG

4H2553-AA = biological target: T8, 4H2553-AA; test: two-hybrid library CCmax; details: mean of both orientations
T8 chain: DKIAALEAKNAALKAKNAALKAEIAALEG

4H340-AA = biological target: T9, 4H340-AA; test: two-hybrid library CCmax; details: mean of both orientations
T9 chain: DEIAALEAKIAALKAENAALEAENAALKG

4H982-AA = biological target: T10, 4H982-AA; test: two-hybrid library CCmax; details: mean of both orientations
T10 chain: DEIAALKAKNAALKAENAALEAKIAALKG

4H32-AA = biological target: T11, 4H32-AA; test: two-hybrid library CCmax; details: mean of both orientations
T11 chain: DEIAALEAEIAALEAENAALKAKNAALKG

4H3718-AA = biological target: T12, 4H3718-AA; test: two-hybrid library CCmax; details: mean of both orientations
T12 chain: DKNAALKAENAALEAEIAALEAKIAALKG

4H3056-AA = biological target: T13, 4H3056-AA; test: two-hybrid library CCmax; details: mean of both orientations
T13 chain: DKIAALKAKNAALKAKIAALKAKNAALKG

4H3588-AA = biological target: T14, 4H3588-AA; test: two-hybrid library CCmax; details: mean of both orientations
T14 chain: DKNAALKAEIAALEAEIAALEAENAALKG

4H2648-AA = biological target: T15, 4H2648-AA; test: two-hybrid library CCmax; details: mean of both orientations
T15 chain: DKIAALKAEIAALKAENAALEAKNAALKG

4H3606-AA = biological target: T16, 4H3606-AA; test: two-hybrid library CCmax; details: mean of both orientations
T16 chain: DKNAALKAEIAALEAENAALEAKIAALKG

4H3162-AA = biological target: T17, 4H3162-AA; test: two-hybrid library CCmax; details: mean of both orientations
T17 chain: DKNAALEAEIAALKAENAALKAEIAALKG

4H3865-AA = biological target: T18, 4H3865-AA; test: two-hybrid library CCmax; details: mean of both orientations
T18 chain: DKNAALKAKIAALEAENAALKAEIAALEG

4H2620-AA = biological target: T19, 4H2620-AA; test: two-hybrid library CCmax; details: mean of both orientations
T19 chain: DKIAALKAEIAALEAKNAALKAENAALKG

4H2611-AA = biological target: T20, 4H2611-AA; test: two-hybrid library CCmax; details: mean of both orientations
T20 chain: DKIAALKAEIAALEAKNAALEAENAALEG

4H3413-AA = biological target: T21, 4H3413-AA; test: two-hybrid library CCmax; details: mean of both orientations
T21 chain: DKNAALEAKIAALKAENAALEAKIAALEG

4H697-AA = biological target: T22, 4H697-AA; test: two-hybrid library CCmax; details: mean of both orientations
T22 chain: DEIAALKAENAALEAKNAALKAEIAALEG

O7 = biological target: T23, O7; test: two-hybrid library CCNG1
T23 chain: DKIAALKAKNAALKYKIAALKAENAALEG

O8 = biological target: T24, O8; test: two-hybrid library CCNG1
T24 chain: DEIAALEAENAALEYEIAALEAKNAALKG

O5 = biological target: T25, O5; test: two-hybrid library CCNG1
T25 chain: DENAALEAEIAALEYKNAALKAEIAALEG

O6 = biological target: T26, O6; test: two-hybrid library CCNG1
T26 chain: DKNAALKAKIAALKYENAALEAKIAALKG

O9 = biological target: T27, O9; test: two-hybrid library CCNG1
T27 chain: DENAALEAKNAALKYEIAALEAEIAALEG

4H3277-bN = biological target: T28, 4H3277-bN; test: two-hybrid library CCNG1
T28 chain: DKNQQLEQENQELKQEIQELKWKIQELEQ

4H348-bN = biological target: T29, 4H348-bN; test: two-hybrid library CCNG1
T29 chain: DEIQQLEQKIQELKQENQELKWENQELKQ

4H319-bN = biological target: T30, 4H319-bN; test: two-hybrid library CCNG1
T30 chain: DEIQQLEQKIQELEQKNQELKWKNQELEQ

4H2915-bN = biological target: T31, 4H2915-bN; test: two-hybrid library CCNG1
T31 chain: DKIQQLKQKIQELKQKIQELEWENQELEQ

4H741-bN = biological target: T32, 4H741-bN; test: two-hybrid library CCNG1
T32 chain: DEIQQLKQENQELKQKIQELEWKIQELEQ

4H40-bN = biological target: T33, 4H40-bN; test: two-hybrid library CCNG1
T33 chain: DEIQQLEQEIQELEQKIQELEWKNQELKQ

4H477-bN = biological target: T34, 4H477-bN; test: two-hybrid library CCNG1
T34 chain: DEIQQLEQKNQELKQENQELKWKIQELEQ

4H492-bN = biological target: T35, 4H492-bN; test: two-hybrid library CCNG1
T35 chain: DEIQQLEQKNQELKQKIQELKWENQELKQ

4H3057-bN = biological target: T36, 4H3057-bN; test: two-hybrid library CCNG1
T36 chain: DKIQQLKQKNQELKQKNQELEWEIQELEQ

interaction score (4H2198-AA): 0.363
interaction score (4H2907-AA): -0.303
interaction score (4H3631-AA): -1.38
interaction score (4H384-AA): 1.32
interaction score (4H3133-AA): -0.581
interaction score (4H3378-AA): -1.47
interaction score (4H3697-AA): -1.16
interaction score (4H2553-AA): 1.96
interaction score (4H340-AA): -1.2
interaction score (4H982-AA): 1.67
interaction score (4H32-AA): -0.333
interaction score (4H3718-AA): -0.339
interaction score (4H3056-AA): -0.0509
interaction score (4H3588-AA): -1.24
interaction score (4H2648-AA): -1.34
interaction score (4H3606-AA): -1.01
interaction score (4H3162-AA): -1.38
interaction score (4H3865-AA): -0.834
interaction score (4H2620-AA): -0.832
interaction score (4H2611-AA): -1.63
interaction score (4H3413-AA): -0.996
interaction score (4H697-AA): 1
B1: 4H2198-AA (peptide)
chain: DKIAALEAENAALEAENAALEAKIAALKG

interaction score (O7): -2.16
interaction score (O8): -2.4
interaction score (O5): -2.36
interaction score (O6): 1.32
interaction score (O9): -2.25
B2: O5 (peptide)
chain: DENAALEAEIAALEYKNAALKAEIAALEG

interaction score (4H3277-bN): -1.62
interaction score (4H348-bN): -0.904
interaction score (4H319-bN): -3.47
interaction score (4H2915-bN): 0.918
interaction score (4H741-bN): -1.16
interaction score (4H40-bN): 1.52
interaction score (4H477-bN): -2.75
interaction score (4H492-bN): -1.44
interaction score (4H3057-bN): -0.568
B3: 4H2915-bN (peptide)
chain: DKIQQLKQKIQELKQKIQELEWENQELEQ
